According to patent US20260265321A1, “PEPTIDE AND POLYPEPTIDE INHIBITING THE NF-KB SIGNALING PATHWAY” (Centre National de la Recherche Scientifique, priority 2023, published 2026):

T1: 6×His-IKKβ(1-669) EE (Homo sapiens, UniProt O14920, S177E/S181E)
T1 construct: a nearly full-length (residues 1-669) and constitutively active (S177E/S181E) mutant construct of human IKKβ; made in house; host or cells: Sf21 insect cells (baculovirus)
T1 sequence (O14920 1-669 S177E/S181E): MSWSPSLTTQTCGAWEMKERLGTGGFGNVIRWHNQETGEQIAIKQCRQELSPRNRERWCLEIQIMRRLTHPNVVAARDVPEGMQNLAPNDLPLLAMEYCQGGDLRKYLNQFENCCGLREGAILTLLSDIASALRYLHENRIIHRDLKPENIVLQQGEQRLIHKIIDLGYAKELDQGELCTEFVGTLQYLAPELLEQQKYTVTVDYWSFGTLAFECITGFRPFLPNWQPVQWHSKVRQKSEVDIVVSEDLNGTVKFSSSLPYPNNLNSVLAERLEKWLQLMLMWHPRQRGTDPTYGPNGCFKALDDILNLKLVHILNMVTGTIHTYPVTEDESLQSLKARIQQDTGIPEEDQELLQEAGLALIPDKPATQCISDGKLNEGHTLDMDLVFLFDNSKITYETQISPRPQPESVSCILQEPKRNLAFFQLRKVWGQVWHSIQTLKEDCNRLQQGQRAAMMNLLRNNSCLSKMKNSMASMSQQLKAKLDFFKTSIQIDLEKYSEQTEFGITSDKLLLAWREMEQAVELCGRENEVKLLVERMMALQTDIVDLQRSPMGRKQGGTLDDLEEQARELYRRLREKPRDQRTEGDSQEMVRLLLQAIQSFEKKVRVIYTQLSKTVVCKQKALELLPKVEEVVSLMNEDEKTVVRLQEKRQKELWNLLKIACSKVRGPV

T2: G1-IKKα, full-length wt IKKα fused to the Gluc1 fragment (human, UniProt O15111 1-745)
T2 construct: Expressed in HEK293T cells for GPCA; full-length; also called Gluc1-IKKα; not shown: Gluc1 fragment of Gaussia princeps luciferase and flexible 20 amino acid linker, N-terminal
T2 sequence (looked up): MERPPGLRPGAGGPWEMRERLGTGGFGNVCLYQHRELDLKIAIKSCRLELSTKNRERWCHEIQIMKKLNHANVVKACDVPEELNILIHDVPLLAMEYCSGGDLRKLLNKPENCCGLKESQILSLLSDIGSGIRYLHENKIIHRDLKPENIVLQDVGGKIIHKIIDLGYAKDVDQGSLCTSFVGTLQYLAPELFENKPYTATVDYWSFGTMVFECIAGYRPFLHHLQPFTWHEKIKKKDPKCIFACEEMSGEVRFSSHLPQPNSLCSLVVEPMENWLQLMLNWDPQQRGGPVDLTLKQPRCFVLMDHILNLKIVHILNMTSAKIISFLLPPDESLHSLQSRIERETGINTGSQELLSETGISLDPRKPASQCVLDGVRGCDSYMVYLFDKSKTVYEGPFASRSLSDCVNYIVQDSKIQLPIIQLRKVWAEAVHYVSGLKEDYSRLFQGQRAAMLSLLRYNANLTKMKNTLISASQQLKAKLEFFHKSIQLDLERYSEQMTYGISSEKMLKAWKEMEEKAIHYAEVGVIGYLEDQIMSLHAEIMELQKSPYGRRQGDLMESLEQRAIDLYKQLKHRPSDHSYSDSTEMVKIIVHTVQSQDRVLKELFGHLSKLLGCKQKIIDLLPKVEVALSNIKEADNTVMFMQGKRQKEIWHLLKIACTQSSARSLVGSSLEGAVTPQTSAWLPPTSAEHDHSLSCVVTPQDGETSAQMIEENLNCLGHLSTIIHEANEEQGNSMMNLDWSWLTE

T3: G1-IKKβ, full-length wt IKKβ fused to the Gluc1 fragment (human, UniProt O14920 1-756)
T3 construct: Expressed in HEK293T cells for GPCA; full-length; also called Gluc1-IKKβ; not shown: Gluc1 fragment of Gaussia princeps luciferase and flexible 20 amino acid linker, N-terminal
T3 sequence (looked up): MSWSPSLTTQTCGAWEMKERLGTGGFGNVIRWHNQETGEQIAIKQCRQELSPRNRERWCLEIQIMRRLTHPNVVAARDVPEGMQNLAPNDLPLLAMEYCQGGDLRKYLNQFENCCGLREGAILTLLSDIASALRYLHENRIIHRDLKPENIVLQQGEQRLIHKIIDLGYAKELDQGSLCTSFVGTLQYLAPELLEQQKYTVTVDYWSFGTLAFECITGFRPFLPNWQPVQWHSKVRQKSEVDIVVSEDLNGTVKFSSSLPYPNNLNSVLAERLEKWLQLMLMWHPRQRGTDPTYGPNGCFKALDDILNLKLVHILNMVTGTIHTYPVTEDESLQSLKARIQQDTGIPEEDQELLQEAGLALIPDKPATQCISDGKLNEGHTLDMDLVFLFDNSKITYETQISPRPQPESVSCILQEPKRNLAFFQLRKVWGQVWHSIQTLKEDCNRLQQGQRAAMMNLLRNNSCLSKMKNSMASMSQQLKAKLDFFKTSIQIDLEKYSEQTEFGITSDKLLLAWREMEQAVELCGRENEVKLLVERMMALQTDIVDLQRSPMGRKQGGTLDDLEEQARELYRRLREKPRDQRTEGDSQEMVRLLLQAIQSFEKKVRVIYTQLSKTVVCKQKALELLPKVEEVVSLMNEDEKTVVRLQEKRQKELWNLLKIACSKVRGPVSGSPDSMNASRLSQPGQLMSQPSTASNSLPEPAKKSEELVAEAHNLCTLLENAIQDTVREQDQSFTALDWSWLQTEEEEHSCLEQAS


What was measured:
6×His-IKKβ(1-669) EE = molecular target: T1, 6×His-IKKβ(1-669) EE; assay: MBP-pulldown of recombinant IKKβ by MBP-peptide fusions; format: binding; conditions: 0.3 μM IKKβ, Western blot
Procedure: Experiments were performed in PD buffer (20 mM Tris pH 8.0, 150 mM NaCl, 2 mM DTT). For each experiment, 10 μl of amylose resin (dry bead volume) coupled to MBP-fusion constructs were incubated with […] of purified 6×His-IKKα(10-667) EE and 6×His-IKKβ (1-669) EE constructs adjusted at a concentration of 0.3 μM for 2 hours at 4° C. After two quick washing steps with PD buffer, complexes were eluted by incubation with 20 μl of the same buffer supplemented with 20 mM maltose for 15 minutes at 4° C. After mild centrifugation, supernatants were recovered and migrated onto two separate 10% SDS-PAGE gels. One gel was used for Western blot analysis to detect His-IKKα or His-IKKβ using and anti-6×His antibody (Sigma, #SAB4301134), the other for Coomassie staining to detect MBP-fusion proteins. Quantification of band intensity was done using the Image J software.

[1] = molecular target: T2, G1-IKKα, full-length wt IKKα fused to …; assay: GPCA (Gaussia princeps protein complementation assay), G1-IKKα FL with G2-p100 constructs, NLR
Procedure: (§1) HEK293T cells were transfected using the reverse transfection method. Transfection mixes containing 100 ng of pSPICA-N2 and 100 ng of pSPICA-N1 plasmids expressing test proteins plus JetPEI® (Polyplus transfection) were dispensed in white 96-well plates. HEK293T cells were then seeded on the DNA mixes at a concentration of 4.2×10^4 cells per well. 48 hours after transfection, cells were washed with 50 μl of PBS and lysed with 40 μl of Renilla lysis buffer (Promega, E2820) for 30 minutes with agitation. Gaussia princeps luciferase enzymatic activity was measured using a Berthold Centro LB960 luminometer by injecting 50 μl per well of luciferase substrate reagent (Promega, E2820) and counting luminescence for 10 seconds. Results are expressed as a fold change normalized over the sum of controls, specified herein as normalized luminescence ratio (NLR) 29. For a given protein pair A/B, NLR=(Gluc1-A+Gluc2-B)/[(Gluc1-A+Gluc2)+(Gluc1+Gluc2-B)]. All interactions were measured in three independent experiments, with each experiment being carried out in triplicate. The expression levels of Gluc1- and Gluc2-fused proteins were checked by Western blotting. 24 hours post-transfection, HEK293T cells were collected, lysed by incubation on ice and centrifuged. Aliquots of cleared supernatants were loaded onto an 10% SDS-PAGE gel.

[2] = molecular target: T3, G1-IKKβ, full-length wt IKKβ fused to …; assay: GPCA (Gaussia princeps protein complementation assay) in HEK293T cells, NLR, mean ± SD of triplicates
Procedure: as §1

[3] = molecular target: T2, G1-IKKα, full-length wt IKKα fused to …; assay: as above
Procedure: as §1

Row | Molecule | binding result [1] | binding result [2] | binding result [3] | interaction with IKKβ by pulldown (6×His-IKKβ(1-669) EE)
1 | DELPYDDCVFGGQRLTL [IκBα pep(s), 17 amino acid peptide from the IκBα C-terminus (residues 301-317)] | – | – | – | necessary and sufficient to interact with IKKβ
2 | EFTEDELPYDDFVFGGQRLTL [C308F IκBα pep, IκBα pep with C308F substitution] | – | – | – | clearly enhance binding to IKKβ
3 | 39-852 (other, also called G2-p100 39-852; not shown: N-terminal Gluc2 fragment of Gaussia princeps luciferase and the flexible 20 amino acid linker (pSPICA-N2)) YLVIVEQPKQRGFRFRYGCEGPSHGGLPGASSEKGRKTYPTVKICNYEGPAKIEVDLVTHSDPPRAHAHSLVGKQCSELGICAVSVGPKDMTAQFNNLGVLHVTKKNMMGTMIQKLQRQRLRSRPQGLTEAEQRELEQEAKELKKVMDLSIVRLRFSAFLRASDGSFSLPLKPVISQPIHDSKSPGASNLKISRMDKTAGSVRGGDEVYLLCDKVQKDDIEVRFYEDDENGWQAFGDFSPTDVHKQYAIVFRTPPYHKMKIERPVTVFLQLKRKRGGDVSDSKQFTYYPLVEDKEEVQRKRRKALPTFSQPFGGGSHMGGGSGGAAGGYGGAGGGGSLGFFPSSLAYSPYQSGAGPMGCYPGGGGGAQMAATVPSRDSGEEAAEPSAPSRTPQCEPQAPEMLQRAREYNARLFGLAQRSARALLDYGVTADARALLAGQRHLLTAQDENGDTPLHLAIIHGQTSVIEQIVYVIHHAQDLGVVNLTNHLHQTPLHLAVITGQTSVVSFLLRVGADPALLDRHGDSAMHLALRAGAGAPELLRALLQSGAPAVPQLLHMPDFEGLYPVHLAVRARSPECLDLLVDSGAEVEATERQGGRTALHLATEMEELGLVTHLVTKLRANVNARTFAGNTPLHLAAGLGYPTLTRLLLKAGADIHAENEEPLCPLPSPPTSDSDSDSEGPEKDTRSSFRGHTPLDLTCSTKVKTLLLNAAQNTMEPPLTPPSPAGPGLSLGDTALQNLEQLLDGPEAQGSWAELAERLGLRSLVDTYRQTTSPSGSLLRSYELAGGDLAGLLEALSDMGLEEGVRLLRGPET | binds | – | – | –

Second part, led by results:

Row | binding result [1] | binding result [2] | binding result [3] | Molecule | interaction with IKKβ by pulldown (6×His-IKKβ(1-669) EE)
4 | – | binds | binds | G2-IκBα FL (other, UniProt P25963 1-317, looked up, range 1-317; Expressed in HEK293T cells for GPCA; also called full-length IκBα; not shown: Gluc2 fragment of Gaussia princeps luciferase and flexible 20 amino acid linker, N-terminal) MFQAAERPQEWAMEGPRDGLKKERLLDDRHDSGLDSMKDEEYEQMVKELQEIRLEPQEVPRGSEPWKQQLTEDGDSFLHLAIIHEEKALTMEVIRQVKGDLAFLNFQNNLQQTPLHLAVITNQPEIAEALLGAGCDPELRDFRGNTPLHLACEQGCLASVGVLTQSCTTPHLHSILKATNYNGHTCLHLASIHGYLGIVELLVSLGADVNAQEPCNGRTALHLAVDLQNPDLVSLLLKCGADVNRVTYQGYSPYQLTWGRPSTRIQQQLGQLTLENLQMLPESEDEESYDTESEFTEFTEDELPYDDCVFGGQRLTL | –
5 | – | binds | binds | 73-317 YD/SS (other, also called G2-IκBα 73-317 YD/SS; G2-IκBα(73-317) Y305S/D307S; not shown: N-terminal Gluc2 fragment of Gaussia princeps luciferase and the flexible 20 amino acid linker (pSPICA-N2)) DGDSFLHLAIIHEEKALTMEVIRQVKGDLAFLNFQNNLQQTPLHLAVITNQPEIAEALLGAGCDPELRDFRGNTPLHLACEQGCLASVGVLTQSCTTPHLHSILKATNYNGHTCLHLASIHGYLGIVELLVSLGADVNAQEPCNGRTALHLAVDLQNPDLVSLLLKCGADVNRVTYQGYSPYQLTWGRPSTRIQQQLGQLTLENLQMLPESEDEESYDTESEFTEFTEDELPSDSCVFGGQRLTL | –
6 | – | binds | binds | 73-288 (other, also called G2-IκBα 73-288; IκBα(73-288); not shown: N-terminal Gluc2 fragment of Gaussia princeps luciferase and the flexible 20 amino acid linker (pSPICA-N2)) DGDSFLHLAIIHEEKALTMEVIRQVKGDLAFLNFQNNLQQTPLHLAVITNQPEIAEALLGAGCDPELRDFRGNTPLHLACEQGCLASVGVLTQSCTTPHLHSILKATNYNGHTCLHLASIHGYLGIVELLVSLGADVNAQEPCNGRTALHLAVDLQNPDLVSLLLKCGADVNRVTYQGYSPYQLTWGRPSTRIQQQLGQLTLENLQMLPESEDEES | –
